Source: the supplement of paper PMC9732359
± gives the uncertainty stated by the source.

Test: protein stability index of a GFP-peptide fusion (yeast GPS) (PSI 1-4); higher = more stable; sorted into four equal gates, so the index is relative within each strain
How it was run: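 For each peptide, the protein stability index sums the read frequency in every gate after multiplying it by the gate number. Read frequencies came from plasmids that were PCR-amplified from each gate and Illumina-sequenced, with reads assigned to strains by barcodes. The gates were four equal bins of GFP/Cherry fluorescence ratio applied to mid-log yeast in leucine-free medium carrying a pooled library of tiled 17-residue yeast protein peptides fused downstream of GFP on a Cherry-expressing plasmid.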

Sequence	protein stability index (pdr5∆)	protein stability index (san1∆)	protein stability index (ubr1∆)	protein stability index (doa10∆)
GVLYQGNIQISEYNFLE [DIS3]	3.05 ± 0.16	2.6 ± 0.18	2.96 ± 0.28	
QSKIDLTKKKNEEINKK [SEM1]	3.47 ± 0.24	2.87 ± 0.14	3.21 ± 0.076	
NEKIEKRSDLTGANSIY [UBP6]	3.01 ± 0.062	3.06 ± 0.075	3.15 ± 0.068	2.75 ± 0.086
FMDEIDSIGSTRVEGSG [RPT6]	2.56 ± 0.12	2.84 ± 0.069	2.46 ± 0.073	2.57 ± 0.076
SSNPQSAYVKAFYQKGN [SMC1]	1.98 ± 0.047	1.96 ± 0.052	1.95 ± 0.033	1.87 ± 0.049
MFAYAKEHEPCIIFMDE [RPT4]	2.32 ± 0.05	2.24 ± 0.065	2.4 ± 0.043	2.34 ± 0.043
DNDRFNVVGKLISIISS [YML103C/NUP188]	1.24 ± 0.073	1.21 ± 0.081	1.2 ± 0.047	1.3 ± 0.064
NIPFWKHVGFELLSMGN [SRP72]	1.58 ± 0.085	2.01 ± 0.16	1.27 ± 0.079	1.82 ± 0.1
TKYFEPTSTENNKKVVG [ECM29]	3.19 ± 0.17	2.82 ± 0.13	2.97 ± 0.062	2.87 ± 0.14
HKQELQDLILDLKKKLN [SMC4]	2.75 ± 0.16	2.31 ± 0.062	1.75 ± 0.058	2.55 ± 0.078
SNMQKSLLPYYHLTKAV [RPN3]	1.87 ± 0.044	1.85 ± 0.062	1.92 ± 0.033	2.02 ± 0.038
VNITKFSKFERSKSSHK [SKI6]	2.65 ± 0.059	2.76 ± 0.064	2.62 ± 0.048	2.73 ± 0.095
LPQSEWKAPSSIVLDSE [DIS3]	3.34 ± 0.069	3.14 ± 0.052	3.15 ± 0.05	3 ± 0.062
YVLRNVLRIPEEYLDAN [MTW1]	2.33 ± 0.15	3 ± 0.061	2.82 ± 0.088	2.67 ± 0.12
QFDIQSPLYMDTETFDT [YML103C/NUP188]	2.88 ± 0.064	3.02 ± 0.063	3.28 ± 0.06	3.11 ± 0.093
KLNTFNLQTFTHEQWSN [SRP72]	2.83 ± 0.078	2.36 ± 0.076	2.78 ± 0.062	3 ± 0.12
TQDDFTTSVDVMLKGIV [SRP54]	2.23 ± 0.081	1.67 ± 0.12	1.51 ± 0.047	1.63 ± 0.1
VSNIEGILDEIMFNHAR [RGR1]	2.53 ± 0.053	2.46 ± 0.065	2.99 ± 0.031	2.77 ± 0.054
DNKDKEGNAGGDQKTSE [YOR098C/NUP1]	3.6 ± 0.17	3.19 ± 0.17	3.35 ± 0.074	
MKFQESLKKVDEIKAQR [SMC4]	3.57 ± 0.26	3.34 ± 0.17	3.57 ± 0.082	
VLVYDDKLEKVTHDCYR [RPC34]	3.18 ± 0.053	2.94 ± 0.069	2.96 ± 0.062	2.57 ± 0.1
QVNQLQRILEVLGTPDQ [SSN3]	1.69 ± 0.037	1.34 ± 0.05	1.51 ± 0.038	1.49 ± 0.043
NPVALEQKLVDLLKFEN [BRR2]	3.23 ± 0.11	2.3 ± 0.12	2.47 ± 0.12	2.94 ± 0.17
GILGNKAQAKMDKRAKN [RPL8A]	3.51 ± 0.14	3.41 ± 0.057	3.63 ± 0.076	3.59 ± 0.12

Sequence	protein stability index (pdr5∆)	protein stability index (san1∆)	protein stability index (ubr1∆)	protein stability index (doa10∆)
TAAYARTIGIAVDHRRQ [RPL13A]	1.58 ± 0.05	1.22 ± 0.088	1.77 ± 0.055	1.58 ± 0.077
LYQLFKTCIQGINSPLS [YJL039C/NUP192]	2.05 ± 0.087	1.64 ± 0.16	2.04 ± 0.11	1.83 ± 0.12
TIQYDPPETKLPYPTYW [SNF5]	2.93 ± 0.042	2.98 ± 0.039	2.94 ± 0.039	3.02 ± 0.049
RITDASLFQLSKLGKNL [GRR1]	2.55 ± 0.05	2.12 ± 0.061	2.51 ± 0.036	2.38 ± 0.045
PAAESKIFTPNLLQISA [SNF5]	2.04 ± 0.11	2.09 ± 0.14	1.55 ± 0.099	1.72 ± 0.12
MLVKAVANSTKAAFIRV [RPT3]	1.5 ± 0.047	1.38 ± 0.11	1.27 ± 0.036	1.97 ± 0.05
IREGQNQKIPDNVIVIN [SIR3]	3.12 ± 0.065	2.98 ± 0.057	3 ± 0.046	2.9 ± 0.049
YVRKHDPLNSNIFSEAV [PRP28]	2.76 ± 0.089	2.9 ± 0.055	3.1 ± 0.12	2.9 ± 0.11
QADLQAMDRAHRIGQKK [ISW2]		3.14 ± 0.23		
SATFLRIVGSELIQKYL [RPT2]	1.46 ± 0.071	1.18 ± 0.13	1.28 ± 0.051	1.41 ± 0.066
FNSVKSFDEWFNTPFAN [SNF2]	3.14 ± 0.082	3.43 ± 0.085	3.26 ± 0.11	2.9 ± 0.091
RIANIEQNHLDNNYNTA [YDL088C/ASM4]	3.18 ± 0.071	3.08 ± 0.044	3.03 ± 0.064	3.11 ± 0.065
LAINAKTITSGLKYALA [RPB2]	2.83 ± 0.073	2.4 ± 0.061	2.79 ± 0.044	2.65 ± 0.057
RSSYMLELVNTPLTENI [YCG1]	3.18 ± 0.082	3.04 ± 0.073	2.91 ± 0.084	3.11 ± 0.096
KKEKLKQENSTLLKKAN [RPC82]	2.81 ± 0.093	2.71 ± 0.12	2.85 ± 0.075	2.3 ± 0.074
GITAVHVKIRATGGTRT [RPS14B]	1.61 ± 0.041	1.57 ± 0.11	1.24 ± 0.047	1.47 ± 0.052
SSNLYETIIEADKSLPS [YJR042W/NUP85]	2.97 ± 0.052	2.94 ± 0.039	2.96 ± 0.061	2.76 ± 0.054
PFILEYDLMAPNGHIST [YMR129W/POM152]	3 ± 0.17		3.05 ± 0.097	2.94 ± 0.12
TVIPEDEEIIQLHFSLL [RPO21]	2.98 ± 0.067	2.98 ± 0.057	2.56 ± 0.086	2.64 ± 0.06
HDLLQIIHFHSHPEKRM [SSN3]	2.71 ± 0.053	2.65 ± 0.046	2.79 ± 0.039	2.62 ± 0.053
ITLENITRLCQTLGLES [MED1]	2.28 ± 0.044	1.91 ± 0.055	1.89 ± 0.037	2.07 ± 0.04
TTTATPHANPITHAHSL [PGD1]	3.01 ± 0.041	2.88 ± 0.035	3.003 ± 0.029	2.84 ± 0.043
FERLVPRGTAKLIIHRK [SMC3]	2.98 ± 0.12		2.86 ± 0.03	3.01 ± 0.12
VSMKANKYQIKKAVKEL [RPL25]	1.52 ± 0.07	2.98 ± 0.056	2.97 ± 0.071	1.18 ± 0.065

Sequence	protein stability index (pdr5∆)	protein stability index (san1∆)	protein stability index (ubr1∆)	protein stability index (doa10∆)
LRRSGQIANDPSKKRRR [SMD1]	3.01 ± 0.15	2.73 ± 0.086	3.23 ± 0.1	2.58 ± 0.078
VEASRRRRSSTNKSKRP [MED1]	3.31 ± 0.056	3.22 ± 0.044	3.28 ± 0.043	3.19 ± 0.066
NVTGGKAANFIQNQSPQ [SWI1]	2.79 ± 0.063	2.87 ± 0.051	2.99 ± 0.047	2.77 ± 0.062
TSTKDKNSSTSNTEPIP [MED1]	3.27 ± 0.061	3.21 ± 0.046	3.16 ± 0.041	3.17 ± 0.058
SSTDFSTCIVSLIRNNL [ECM29]	2.99 ± 0.092	2.41 ± 0.063	2.88 ± 0.054	2.7 ± 0.066
VTYTEHAKRKTVTSLDV [HHF1]			2.68 ± 0.095	3.25 ± 0.23
EPMKQLNATKISPSAPS [YAR002W/NUP60]	2.91 ± 0.083	2.96 ± 0.062	2.77 ± 0.078	2.73 ± 0.075
LTDHRKETWLHELSSSH [SRB8]	3.58 ± 0.19		2.76 ± 0.14	
VLKYMLLSKIMLNLIDD [RPN6]	1.49 ± 0.05	1.2 ± 0.098	1.66 ± 0.045	2.04 ± 0.06
SNSDNCPEEFAESMCQE [SNF5]	3.33 ± 0.069	3.27 ± 0.041	3.01 ± 0.068	3.25 ± 0.065
EKKLEDYCRILSDIETA [YGL172W/NUP49]	3.14 ± 0.09	2.67 ± 0.11	2.55 ± 0.089	1.75 ± 0.11
RLANLIDYKLRVLTQDG [SMB1]	2.69 ± 0.08	1.62 ± 0.13	2.79 ± 0.047	2.65 ± 0.089
VPQGKIVALTNAKDKER [SMC3]	2.84 ± 0.14	2.83 ± 0.15	3.02 ± 0.092	2.77 ± 0.1
SVPLVIGQFLEPIDQNT [RPT3]	2.77 ± 0.095	2.95 ± 0.13	2.71 ± 0.067	1.88 ± 0.11
AKYHAKLNKKLQHLRSR [SRP68]	3.44 ± 0.078	3.26 ± 0.046	3.07 ± 0.059	3.3 ± 0.088
SPMGNAYSMGAQNQGGQ [PGD1]	2.91 ± 0.069	2.91 ± 0.064	2.71 ± 0.043	2.57 ± 0.062
AFYQKGNKLVELMRIIS [SMC1]	1.15 ± 0.19		1.38 ± 0.25	1.59 ± 0.27
SEVQRTMLELLNQLDGF [RPT6]	2.5 ± 0.083	1.86 ± 0.15	2.51 ± 0.07	2.55 ± 0.1
AHNKPSLFSKIKTFFTQ [YAR002W/NUP60]	2.85 ± 0.076	2.66 ± 0.064	2.73 ± 0.065	2.37 ± 0.079
LLKSTGLHPFEVAQLGS [RPB4]	1.81 ± 0.27		2.73 ± 0.2	1.94 ± 0.12
ELKNELAKTKENYDAKI [YIL149C/MLP2]	3.43 ± 0.071	3.15 ± 0.052	3.08 ± 0.076	3.22 ± 0.073
LICQNNLNAFVDFSKYN [SRP72]	2.99 ± 0.063	3.11 ± 0.044	2.54 ± 0.061	3.1 ± 0.077
AFRTLRLARSEKKFRGI [RPL13A]	3.49 ± 0.15		3.3 ± 0.084	3.4 ± 0.24
LLLKKIIKDYVLDIVPG [SRB4]	2.52 ± 0.084	2.33 ± 0.1	2.71 ± 0.073	2.74 ± 0.094
